Substitutions are numbered along the chain they refer to. In names and notes the source's numbering stands.

In assay [1] the target is BamA(S274C/C690S/C700S) (disulfide-crosslinked SurA–BAM complex 1) (E. coli, UniProt P0A940 21-810, S274C | C690S | C700S). Nature of the assay: cryo-EM structure.
In assay [2] the target is BamA(C690S/C700S) (disulfide-crosslinked SurA–BAM complex 2) (E. coli, UniProt P0A940 21-810, C690S | C700S). Nature of the assay: cryo-EM structure.

B1: SurA(N336C)-His10 (disulfide-crosslinked SurA–BAM complex 1) (natural protein)
chain: APQVVDKVAAVVNNGVVLESDVDGLMQSVKLNAAQARQQLPDDATLRHQIMERLIMDQIILQMGQKMGVKISDEQLDQAIANIAKQNNMTLDQMRSRLAYDGLNYNTYRNQIRKEMIISEVRNNEVRRRITILPQEVESLAQQVGNQNDASTELNLSHILIPLPENPTSDQVNEAESQARAIVDQARNGADFGKLAIAHSADQQALNGGQMGWGRIQELPGIFAQALSTAKKGDIVGPIRSGVGFHILKVNDLRGESKNISVTEVHARHILLKPSPIMTDEQARVKLEQIAADIKSGKTTFAAAAKEFSQDPGSACQGGDLGWATPDIFDPAFRDALTRLNKGQMSAPVHSSFGWHLIELLDTRNVDKTDAAQKDRAYRMLMNRKFSEEAASWMQEQRASAYVKILSN
On to B1, for which the binding result in assay [1] is reported as “binds”.

B2: SurA(I297C)-His10 (disulfide-crosslinked SurA–BAM complex 2) (natural protein)
chain: B1 chain with I277C, C316N
In the case of B2, the binding result in assay [2] is “binds”.

The record behind these values is paper doi:10.1101/2025.11.10.687524 (bioRxiv, 2025).
